Test results published in US20110293610A1 (published 2011).

T1: Fas ligand (human, UniProt P48023 134-281, limits assumed)
T1 sequence (looked up): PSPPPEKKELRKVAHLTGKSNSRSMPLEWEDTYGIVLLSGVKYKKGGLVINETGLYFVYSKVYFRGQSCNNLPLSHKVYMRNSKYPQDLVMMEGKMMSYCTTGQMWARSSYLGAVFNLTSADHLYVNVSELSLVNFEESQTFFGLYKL

T2: TNF-beta (human, UniProt P01374 35-205)
T2 construct: also called TNFβ; Tumour Necrosis Factor-beta
T2 sequence (looked up): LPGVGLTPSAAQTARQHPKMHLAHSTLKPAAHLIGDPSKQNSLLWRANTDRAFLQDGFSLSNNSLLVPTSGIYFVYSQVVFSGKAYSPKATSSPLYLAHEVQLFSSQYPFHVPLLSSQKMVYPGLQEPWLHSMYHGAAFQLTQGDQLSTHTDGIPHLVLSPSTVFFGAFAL


Key:
[1] = target: T3, B Lymphocyte Stimulator, soluble form (human) (human, UniProt Q9Y275 134-285, biotinylated with NHS-biotin where used as biotinylated B Lymphocyte Stimulator); assay: phage competition ELISA
T3 construct: Coated on plastic, captured on streptavidin plates, amine-coupled to a CM5 chip or free in solution, depending on the assay; also called BLyS; immobilized B Lymphocyte Stimulator

[2] = target: T4, membrane-bound B Lymphocyte Stimulator on U937 plasma membrane preparations (human, UniProt Q9Y275 1-285); assay: phage ELISA
T4 construct: Natural protein in plasma membrane fractions of the human cell line U937 coated on ELISA plates; also called U937 plasma membranes; U937 membranes

[3] = target: T5, TNF-alpha (human, UniProt P01375 77-233); assay: phage ELISA
T5 construct: also called TNFα; TNF-α

[4] = target: T6, TRAIL (human, UniProt P50591 114-281); assay: phage ELISA
T6 construct: also called TNF-related apoptosis inducing ligand

[5] = target: T1, Fas ligand; assay: phage ELISA
[6] = target: T2, TNF-beta; assay: phage ELISA

Row | Binder | binding result [1] | binding result [2] | binding result [3] | binding result [4] | binding result [5] | binding result [6]
1 | I061H01 (scFv, also called 1061H01) scFv: QVQLVQSGGGLVKPGGSLRLSCAASGFTFSNAWMSWVRQAPGKGLQWVGRIKSKTDGGTTDYAAPVKGRFTISRDDSKNTLYLQMNSLKTEDTAVYYCTTFNPTYDILTGYYIGGYFQHWGQGTMVTVSSGGGGSGGGGSGGGGSQSVLTQPASVSGSPGQSITISCTGTSSDVGGYNYVSWYQQHPGKAPKLMIYEGSKRPSGVSNRFSGSKSGNTASLTISGLQAEDEADYYCSSYTTRSTRVFGGGTQLTVLG | binds | binds | no binding | no binding | no binding | no binding
2 | I007H08 (scFv) scFv: QVQLQQSGPGLVKPSQILSLTCAISGDSVASNGAAWNWIRQSPSRGLEWLGRTYYRSKWYVDYAVSVKSRITINPDTSKNQFSLQLNSVTPEDTAVYYCARDRYDILTGYYYYGMDVWGQGTMVTVSSGGGGSGGGGSGGGGSQSALTQPASVSGSRGQSITISCTGTTGDVGGYDYVSWYQQHPGKAPKLLIYGNSNRPSGVPDRFSASKSGNTASLTISGLQAEDEADYFCNTYAPPGIIMFGGGTKLTVLG | binds | binds | no binding | no binding | no binding | no binding
3 | I008A11 (scFv) scFv: QVQLQQSGPGLVKPSQILSLTCAISGDSVASNGAAWNWIRQSPSRGLEWLGRTYYRSKWYVDYAVSVKSRITINPDTSKNQFSLQLNSVTPEDTAVYYCARDRYDILTGYYYYGMDVWGQGTMVTVSSGGGGSGGGGSGGGGSQSALTQPASVSGSRGQSITISCTGTTGDVGGYDYVSWYQQHPGKAPKLLIYGNSNRPSGVPDRFSASKSGNTASLTISGLQAEDEADYFCSTYAPPGIIMFGGGTKLTVLG | binds | binds | no binding | no binding | no binding | no binding
4 | I016F02 (scFv) scFv: GVQLVESGAEVKKPGASVKVSCRTSGYTFTSNSFSWVRQAPGQGLEWMGGIIPIFGTANYAQKLQGRVTITADELTRTVYMDLSSLRSEDTAVYYCATGMGDHYGMDVWGRGTLVTVSSGGGGSGGGGSGGGGSQSVLTQPASVSGSPGQSITISCTGTSSDVGGYNYVSWYQQHPGKAPKLMIYEGSKRPSGVSNRFSGSKSGNTASLTISGLQAEDEADYYCSSYTTRSTRVFGGGTKLTVLG | binds | binds | no binding | no binding | no binding | no binding
5 | I007B03 (scFv) scFv: GVQLQQSGAEVKKPGSSVKVSCKASGGTFNTSGITWVRQAPGQGLEWMGWMNPNTGDTAYAQEFQGRVIMTRDTSISTAYMELSSLRSEDTAVYYCARDGSYDILTGYYIDNYMDVWGQGTMVTVSSGGGGSGGGGSGGGGSQSVLTQPASVSGSPGQSITISCTGTSSDVGGYNYVSWYQQHPGKAPKLMIYEGSKRPSGVSNRFSGSKSGNTASLTISGLQAEDEADYYCSSYTTRSTRVFGGGTKLTVLG | binds | binds | no binding | no binding | no binding | no binding
6 | I006D08 (scFv) scFv: QVQLQQSGAEVKKPGSSVRVSCKASGGTFNNNAINWVRQAPGQGLEWMGGIIPMFGTAKYSQNFQGRVAITADESTSTASMELSSLRSEDTAVYYCARSRDLLLFPHYGMDVWGRGTMVTVSSGGGGSGGGGSGGGGSAFSSELTQDPAVSVALGQTVRVTCQGDSLRSYYASWYQQKPGQAPVLVIYGKNNRPSGIPDRFSGSSSGNTASLTITGAQAEDEADYYCNSRDSSGNHWVFGGGTELTVLG | binds | binds | no binding | no binding | no binding | no binding

Next, values leading:

Row | binding result [1] | binding result [2] | binding result [3] | binding result [4] | binding result [5] | binding result [6] | Binder
7 | binds | binds | no binding | no binding | no binding | no binding | I008A09 (scFv) scFv: GVQLVQSGGGVVQPGGSLRLSCAASGFTFSSYGMHWVRQAPGKGLEWVAVISYDGSNKYYADSVKGRFTISRDNSKNTLYLQMNSLRAEDTAVYYCARDREAYYDILTGYYLYYYYMDVWGRGTTVTVSSGGGGSGGGGSGGGGSQSVLTQPASVSGSPGQSITISCTGTSSDVGGYNYVSWYQQHPGKAPKLMIYEGSKRPSGVSNRFSGSKSGNTASLTISGLQAEDEADYYCSSYTTGSTRVFGGGTKLTVLG
8 | binds | binds | no binding | no binding | no binding | no binding | I022D01 (scFv) scFv: EVNLRESGGGVDQPGRSLRLSCAASGFTFSSYGMHWVRQAPGKGLEWVAVISYDGSNKYYADSVKGRFTISRDNSKNTLYLQMNSLRAEDTAVYYCAKDGYYDILTGYSYYGMDVWGQGPMVAVSSGGGGSGGGGSGGGGSSELTQDPAVSVALGQTVRITCQGDSLRSYYTNWFQQKPGQAPLLVVYAKNKRPSGIPDRFSGSSSGNTASLTITGAQAEDEADYYCNSRDSSGNHVVFGGGTKLTVLG
9 | binds | binds | no binding | no binding | no binding | no binding | I031G10 (scFv) scFv: QVQLVQSGAEVKKPGSSVKVSCRVSGGSFTDDSINWLRQAPGQGLEWVGGTIPLANRANYAQKFRDRVTITADELTATVFLELTSLRSDDTALYYCARSSPPKWYDALTGDSSYHSAMDVWGRGTLVTVSSGGGGSGGGGSGGGGSAQSVVTQPPSVSAAPGQKVTISCSGSTSNIGRNYVSWYQQLPGTATKLLIYDNNKRPSGIPDRFSGSKSGTSATLGITGLQTGDEADYYCGTWDSSLRIYVFGTGTKVTVLG
10 | binds | binds | no binding | no binding | no binding | no binding | I021B05 (scFv) scFv: QVQQSGADVKKPGGSLRLSCAASGFTFSSYSMNWVRQAPGKGLEWVSSISSSSSYIYYADSVKGRFTISRDNAKNSLYLQMNSLRAEDTAVYYCAREGGNYDILTGYYIGNGAFDIWGRGTMVTVSSGGGGSGGGGSGGGGSQSVLTQPASVSGSPGQSITISCTGTSSDVGGYNYVSWYQQHPGKAPKLMIYEGSKRPSGVSNRFSGSKSGNTASLTISGLQAEDEADYYCSSYTTRSTRVFGGGTKLTVLG
11 | binds | binds | no binding | no binding | no binding | no binding | I018C10 (scFv) scFv: GVQLVQSGPEVKKPGASVKVSCTASGYTFTSYGVSWVRQAPGQGLEWIGWISAHNGQTKYAEKFQGRVTMTRNTSISTAYMELSSLRSEDTVVYYCARDGSYDILTGYYIDNYMDVWGKGTMVTVSSGGGGSGGGGSGGGGSSELTQDPAVSVALGQTVRITCQGDSLRSYYTNWFQQKPGQAPLLVVYAKNKRPSGIPDRFSGSSSGNTASLTITGAQAEDEADYYCHSRDSSGNHVLFGGGTKLTVLG
12 | binds | binds | no binding | no binding | no binding | no binding | I026E03 (scFv) scFv: EVQLVQSGGEVKRPGASVKVSCKASGYTFSRYGISWVRQAPGQGLEWMGWISAYNGKTSFAEKFQGRVTLTTDTSTTTVDMELRNLRSDDTAVYYCARTDYDILTGYPMGYFDPWGKGTLVTVSSGGGGSGGGGSGGGGSALSSELTQDPAVSVALGQTVKITCQGDSLRSFYAAWYQQKPGQAPILVISGKNNRPSGIPDRFSGSSSGNTASLTITGAQAEDEADYYCNSRDTSGNHYVFGAGTKLTVLG
13 | binds | binds | no binding | no binding | no binding | no binding | I029F11 (scFv) scFv: QVQLVQSRAEVKRPGASVKVSCKASGYRFGSYGITWVRQAPGQGLEWMGWISTRYGDTKSAQKVEGRVTLTTDTSTSTAYMELRSLRSDDTAVYYCARDGSYDILTGYYIDNYMDVWGRGTLVTVSSGGGGSGGGGSGGGGSQSVLTQPPSASGTPGQRVTISCSGSSSNIGSNTVNWYQRLPGAAPQLLIYNNDQRPSGIPDRFSGSKSGTSGSLVISGLQSEDEADYYCASWDDSLNGRVFGGGTKLTVLG
